{
  "source": "patent US20130071835A1",
  "about": "“Qualitative and Quantitative Analytical Method for Analyzing the Activity Type of an Enzyme that is Activated by Proteolysis” (Nanoenteck, Inc., priority 2010, published 2013)",
  "target": "T1, Lp-PLA2 (Homo sapiens, UniProt Q13093)",
  "T1 construct": "purchased diaDexus, USA",
  "T1 sequence (Q13093 22-441)": "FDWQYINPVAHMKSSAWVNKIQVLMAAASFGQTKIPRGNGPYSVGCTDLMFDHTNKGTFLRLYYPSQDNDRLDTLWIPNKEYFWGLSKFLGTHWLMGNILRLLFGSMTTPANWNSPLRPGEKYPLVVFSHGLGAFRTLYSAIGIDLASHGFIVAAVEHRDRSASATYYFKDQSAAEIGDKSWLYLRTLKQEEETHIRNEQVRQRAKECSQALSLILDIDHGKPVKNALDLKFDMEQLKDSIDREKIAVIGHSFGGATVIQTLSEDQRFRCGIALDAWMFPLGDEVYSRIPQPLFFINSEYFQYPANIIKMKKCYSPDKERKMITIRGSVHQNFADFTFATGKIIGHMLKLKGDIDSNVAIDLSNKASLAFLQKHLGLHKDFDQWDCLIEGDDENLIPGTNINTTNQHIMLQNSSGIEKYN",
  "test": "Competition binding of Lp-PLA2 to Apo C-III-coated microplate (ELISA, absorbance)",
  "procedure": "After Apo C-III was diluted with 100 mM carbonate buffer (pH 9.5) at a concentration of 2 μg/ml, the Apo C-III solution (100 μl) was added to each well in a microplate, which was coated at 37° C. incubator for 2 hrs. And then, the Apo C-III solution was removed from each well and 200 μl PBS supplemented with 1% BSA was added to each well. After incubation at 37° C. incubator, the solution was removed from each well that was then dried.\nTween-20 (0.05%)-containing PBS buffer (pH 7.4) was used for dilution, reaction and washing buffer in the experiment. Each 100 μl Lp-PLA2 (1 μg/ml) was added to Apo C-III-coated microplate well (FIG. 2a). Or, Lp-PLA2 and Apo C-III was diluted at a final concentration of 1 μg/ml and 0.5 μg/ml, respectively, and the solution (100 μl) was added to Apo C-III-coated microplate well (FIG. 2b). Each reaction preparation was incubated at 37° C. incubator for 50 min, and then removed from the well, followed by washing 2 times. Anti-Lp-PLA2 antibody solution (100 μl) diluted to 5 μg/ml was added to the washed well and incubated at 37° C. incubator for 50 min. The solution was removed and each well was washed 2 times. […] After 100 μl H2SO4 (2 N) was added to each washed well, the absorbance was measured. The measurement of absorbance utilized TECAN Infinit M200: wavelength measurement, 450 nm; and calibration wavelength, 620 nm. […]",
  "data": [
    {"substance": "Apolipoprotein C-III [Apo C-III]", "values": [
      {"measurement": "Final signal intensity (absorbance: Ab 620 nm), mean", "setting": "Lp-PLA2 1 μg/ml plus free Apo C-III 0.5 μg/ml added to Apo C-III-coated microplate well, Lp-PLA2 alone gave 0.208", "value": 0.130},
      {"measurement": "reduction of signal compared with sample without free Apo C-III", "setting": "Lp-PLA2 1 μg/ml plus free Apo C-III 0.5 μg/ml, Apo C-III-coated microplate", "value": 37.6, "unit": "%"}
    ]}
  ]
}
